Values of other authors as cited in paper PMC10027511, “Disordered proteins mitigate the temperature dependence of site-specific binding free energies” (The Journal of Biological Chemistry, 2023).

Experiments:
[1] = target: Sos site 4 peptide site 4 peptide (Drosophila melanogaster) (UniProt P26675); assay: 19F NMR lineshape analysis, 25 °C
[2] = target: Sos site 4 peptide site 4 peptide (Drosophila melanogaster) (UniProt P26675); assay: 19F NMR lineshape analysis, 5 °C
[3] = target: Sos site 4 peptide site 4 peptide (Drosophila melanogaster) (UniProt P26675); assay: 19F NMR lineshape analysis, 15 °C
[4] = target: Sos site 4 peptide site 4 peptide (Drosophila melanogaster) (UniProt P26675); assay: 19F NMR lineshape analysis, 45 °C
[5] = target: Sos site 4 peptide site 4 peptide (Drosophila melanogaster) (UniProt P26675); assay: 19F NMR lineshape analysis, 35 °C

Drk N-terminal SH3 domain N-terminal SH3 (from UniProt Q08012)
Kd [1]: 60 µM
Kd [2]: 20 µM
Kd [3]: 40 µM
Kd [4]: 210 µM
Kd [5]: 110 µM
